From patent US20100254989A1

Columns and labels:
[1] = target: c-Met receptor on OVCAR-8 cells (human) (UniProt P08581); test: cell-based or functional assay
human c-Met ECD (human) = human c-Met ECD (human) (UniProt P08581); test: SPR (Biacore T100), antibody captured by anti-Fc gamma, c-Met ECD in solution, 25 C

With “BsAB01, trivalent bispecific <ErbB1-c-Met> antibody (full length cetuximab with one c-Met 5D5 single chain Fab fragment at the C-terminus of the knob heavy chain) (bispecific antibody)” as the substance, how does the % Internalization of c-Met after 2 h on OVCAR-8 cells (=100-% antibody on cell surface) [1] read?
Its % Internalization of c-Met after 2 h on OVCAR-8 cells (=100-% antibody on cell surface) is -14%.

What about the % c-Met receptor on OVCAR-8 cell surface measured after 2 h [1] of the same substance?
Its % c-Met receptor on OVCAR-8 cell surface measured after 2 h is 114%.

And the Kd (human c-Met ECD (human))?
Its Kd is 5.5 nM.
